Results taken from publication PMC2978106, “The Arabidopsis ABA-Activated Kinase OST1 Phosphorylates the bZIP Transcription Factor ABF3 and Creates a 14-3-3 Binding Site Involved in Its Turnover” (PLoS ONE, 2010).
Where no end group is shown, it is not given here. [ ]: non-standard residue; d: D form. pT = C[C@@H](OP(=O)(O)O)[C@H](N)C(=O)O

Biological target: T1, Arabidopsis 14-3-3 protein GF14phi fused to GST (Arabidopsis, UniProt P46077 1-267)
T1 construct: 14-3-3 protein GF14phi of Arabidopsis; also called GST-14-3-3; source: E. coli, loaded on glutathione beads
T1 sequence (looked up): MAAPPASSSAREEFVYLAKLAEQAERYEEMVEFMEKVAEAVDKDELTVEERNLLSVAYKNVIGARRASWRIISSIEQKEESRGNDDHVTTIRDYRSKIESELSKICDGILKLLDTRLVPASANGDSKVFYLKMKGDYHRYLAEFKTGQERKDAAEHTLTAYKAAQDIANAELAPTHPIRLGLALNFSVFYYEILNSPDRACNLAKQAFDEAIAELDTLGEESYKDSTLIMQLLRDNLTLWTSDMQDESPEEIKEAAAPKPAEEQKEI
Assay: pull-down; GST-GF14phi (0.4 nmole) on glutathione beads; 15 µM peptide phosphorylated by OST1 with ATP^γ32; 30 min at 25°C; 20 mM Tris-HCl pH 7.5, 150 mM NaCl, 1 mM CaCl2, 1 mM DTT, 0.05% Tween20; bound peptide counted by Cerenkov counting
Details: both partners purified

B1: ABF3T451 peptide phosphorylated by OST1 (peptide)
peptide: KKRQCLRRTL[pT]GPW
modifications: also: phosphothreonine at T451 (T9 or T11 of chain, not fixed by letters)
notes: residues printed before L446 of the ABF3T451 peptide; C-terminal end of ABF3 (C4 domain, LXRXXTXP motif with T451), Arabidopsis thaliana, At4g34000; It holds two threonines (T449, T451); also called pABF3T451; phospho-ABF3T451
B1: binds.
